The experiment addresses T1, human relaxin receptor RXFP1 (relaxin family peptide receptor 1) (human, UniProt Q9HBX9 1-757).
T1 sequence (looked up): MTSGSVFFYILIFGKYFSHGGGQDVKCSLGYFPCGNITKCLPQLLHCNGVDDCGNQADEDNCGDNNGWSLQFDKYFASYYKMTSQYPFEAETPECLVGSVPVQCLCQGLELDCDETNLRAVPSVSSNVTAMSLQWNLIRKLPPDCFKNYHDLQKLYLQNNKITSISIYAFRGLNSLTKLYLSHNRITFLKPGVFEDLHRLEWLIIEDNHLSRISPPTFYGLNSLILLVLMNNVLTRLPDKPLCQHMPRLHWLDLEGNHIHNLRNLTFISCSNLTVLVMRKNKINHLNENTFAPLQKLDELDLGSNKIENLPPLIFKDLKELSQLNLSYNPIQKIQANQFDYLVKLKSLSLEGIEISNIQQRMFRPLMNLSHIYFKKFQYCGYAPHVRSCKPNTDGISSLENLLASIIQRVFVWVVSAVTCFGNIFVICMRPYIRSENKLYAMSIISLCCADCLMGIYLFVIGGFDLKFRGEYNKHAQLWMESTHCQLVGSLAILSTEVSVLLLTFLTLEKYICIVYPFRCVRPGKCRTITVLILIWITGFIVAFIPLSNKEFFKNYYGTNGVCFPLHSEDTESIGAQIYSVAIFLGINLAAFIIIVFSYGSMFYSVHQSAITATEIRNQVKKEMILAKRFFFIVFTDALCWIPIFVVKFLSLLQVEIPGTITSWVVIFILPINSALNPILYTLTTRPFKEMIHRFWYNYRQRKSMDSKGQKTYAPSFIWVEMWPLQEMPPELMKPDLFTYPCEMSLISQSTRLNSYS
Briefly: cell-based or functional assay.

B1: -Asp-shRlx, single aa degradation product of synthetic human relaxin-2 (ligand)
chain 1: ELYSALANKCCHVGCTKRSLARFC
chain 2: SWMEEVIKLCGRELVRAQIAICGMSTWS
modifications: pGlu (pyroglutamate) at position 1
As for B1, the “cAMP response pEC50 (cAMP reporter gene assay, HEK293T cells overexpressing RXFP1)” value is 10.2 pEC50 (negative decadic logarithm of the half-maximum concentration).

For the origin of these results see patent US20190142902A1 (RELAXERA PHARMAZEUTISCHE GESELLSCHAFT MBH, published 2019).
